In patent publication US8865867:

Experiments:
[1] = molecular target: HIV-1 envelope (isolate used on monocyte-derived macrophages, not named) (HIV-1); assay: cell-based or functional assay
[2] = molecular target: HIV-1 consensus subtype C envelope (HIV-1); assay: cell-based or functional assay

| Substance | IC50 of inhibition of HIV-1 replication in MDM, 7 days [1] [nM] | Fold Decrease in Anti-HIV activity (IC50 of mutant / IC50 of wild-type BanLec) [2] [fold] | IC50(nM), inhibition of infection of TZM-bl cells by pseudotyped HIV-1 [2] [nM] |
| --- | --- | --- | --- |
| BanLec | 9.72 |  |  |
| BanLec H84A |  | 2.5 | 0.7 |
| BanLec H84M |  | 21 | 7.7 |
| BanLec H84S |  | 4.1 | 1.6 |
| BanLec H84T |  | 23 | 7 |
| BanLec H84Y |  |  | 0.29 |
